The values that follow come from article PMC12102759 (2025).

To fix the notation:
B1: PAIP1 peptide 124-139 (Polyadenylate-binding protein-interacting protein 1), 16-mer library wild type / PABPC1 PABC (PABPC1 PABC domain, residues 544-623) (parent complex)
chain 1: LMSKLSVNAPEFYPSG
chain 2: PLTASMLASAPPQEQKQMLGERLFPLIQAMHPTLAGKITGMLLEIDNSELLHMLESPESLRSKVDEAVAVLQAHQAKEAA
B2: PEX5 peptide 240-255 (Peroxisomal targeting signal 1 receptor), 16-mer library wild type / PEX14 Pex14 (PEX14 PEX14, residues 16-84) (parent complex)
chain 1: AEQWAAEFIQQQGTSD
chain 2: TPGSENVLPREPLIATAVKFLQNSRVRQSPLATRRAFLKKKGLTDEEIDMAFQQSGTAADEPSSLGPAT

Variants of B1 are the subject of the first experiment. The experiment is described as follows: proteomic peptide phage display deep mutational scan (ProP-PD DMS): M13 P8 16-mer library selected against immobilised GST-tagged bait for four days (rounds), NGS of the eluted pools per day and pseudo-replica; bait immobilised on MaxiSorp plates (10 µg), library pre-cleared on GST, 2 h binding at 4 °C, five washes; one round per day, days 1-4; value from days 2 and 3.
As for chain 1 M2P, the screen value was 0.000581 average fractional NGS count over selection days 2 and 3 (reads of this peptide / all reads for the bait, averaged over ….

For the variant chain 1 M2L, the screen value is 0.000374 average fractional NGS count over selection days 2 and 3 (reads of this peptide / all reads for the bait, averaged over …. Same read-out and setting: to chain 1 M2G belongs 0.00279 average fractional NGS count over selection days 2 and 3 (reads of this peptide / all reads for the bait, averaged over …. chain 1 M2A: the screen value was 0.000739 average fractional NGS count over selection days 2 and 3 (reads of this peptide / all reads for the bait, averaged over ….

For chain 1 M2N, the screen value was 0.00156 average fractional NGS count over selection days 2 and 3 (reads of this peptide / all reads for the bait, averaged over …. Same read-out and setting: the same measure for chain 1 N8L: 0.00116 average fractional NGS count over selection days 2 and 3 (reads of this peptide / all reads for the bait, averaged over ….

Take chain 1 N8Y: the screen value was 0.000292 average fractional NGS count over selection days 2 and 3 (reads of this peptide / all reads for the bait, averaged over …. Still for that read-out and setting: to chain 1 N8E belongs 0.000334 average fractional NGS count over selection days 2 and 3 (reads of this peptide / all reads for the bait, averaged over …; to chain 1 N8A, 0.000206 average fractional NGS count over selection days 2 and 3 (reads of this peptide / all reads for the bait, averaged over …; to chain 1 N8T, 0.00351 average fractional NGS count over selection days 2 and 3 (reads of this peptide / all reads for the bait, averaged over …. The same measure, in the same setting: the same measure for chain 1 N8F: 0.00423 average fractional NGS count over selection days 2 and 3 (reads of this peptide / all reads for the bait, averaged over ….

In the case of chain 1 N8M, the screen value is 0.000551 average fractional NGS count over selection days 2 and 3 (reads of this peptide / all reads for the bait, averaged over …. On the same count and under the same terms, the same measure for chain 1 N8S: 0.00131 average fractional NGS count over selection days 2 and 3 (reads of this peptide / all reads for the bait, averaged over …; for chain 1 N8W: 0.000471 average fractional NGS count over selection days 2 and 3 (reads of this peptide / all reads for the bait, averaged over …. Regarding chain 1 Y13H, the screen value was 0.000948 average fractional NGS count over selection days 2 and 3 (reads of this peptide / all reads for the bait, averaged over …. On the same count and under the same terms, to chain 1 Y13R belongs 0.000336 average fractional NGS count over selection days 2 and 3 (reads of this peptide / all reads for the bait, averaged over …; to chain 1 Y13V, 0.000146 average fractional NGS count over selection days 2 and 3 (reads of this peptide / all reads for the bait, averaged over …; to chain 1 Y13W, 0.00367 average fractional NGS count over selection days 2 and 3 (reads of this peptide / all reads for the bait, averaged over …. Still for that read-out and setting: to chain 1 Y13D belongs 0.00104 average fractional NGS count over selection days 2 and 3 (reads of this peptide / all reads for the bait, averaged over …; to chain 1 Y13Q, 0.00152 average fractional NGS count over selection days 2 and 3 (reads of this peptide / all reads for the bait, averaged over …; to chain 1 Y13E, 0.00175 average fractional NGS count over selection days 2 and 3 (reads of this peptide / all reads for the bait, averaged over ….

For the variant chain 1 Y13A, the screen value is 0.001 average fractional NGS count over selection days 2 and 3 (reads of this peptide / all reads for the bait, averaged over …. On the same count and under the same terms, the same measure for chain 1 Y13K: 0.00389 average fractional NGS count over selection days 2 and 3 (reads of this peptide / all reads for the bait, averaged over …; for chain 1 Y13L: 0.00572 average fractional NGS count over selection days 2 and 3 (reads of this peptide / all reads for the bait, averaged over …; for chain 1 Y13T: 0.00149 average fractional NGS count over selection days 2 and 3 (reads of this peptide / all reads for the bait, averaged over …. Same read-out and setting: the same measure for chain 1 Y13S: 0.000669 average fractional NGS count over selection days 2 and 3 (reads of this peptide / all reads for the bait, averaged over …. chain 1 Y13I: the screen value was 0.021 average fractional NGS count over selection days 2 and 3 (reads of this peptide / all reads for the bait, averaged over …. On the same count and under the same terms, the same measure for chain 1 Y13M: 0.000346 average fractional NGS count over selection days 2 and 3 (reads of this peptide / all reads for the bait, averaged over …; for chain 1 F12W: 0.00452 average fractional NGS count over selection days 2 and 3 (reads of this peptide / all reads for the bait, averaged over …. On the same count and under the same terms, the same measure for chain 1 F12Y: 0.00127 average fractional NGS count over selection days 2 and 3 (reads of this peptide / all reads for the bait, averaged over …; for chain 1 L5W: 0.000754 average fractional NGS count over selection days 2 and 3 (reads of this peptide / all reads for the bait, averaged over …. Still for that read-out and setting: the same measure for chain 1 L5M: 0.0192 average fractional NGS count over selection days 2 and 3 (reads of this peptide / all reads for the bait, averaged over …. In the case of chain 1 P14A, the screen value is 0.0008 average fractional NGS count over selection days 2 and 3 (reads of this peptide / all reads for the bait, averaged over …. Same read-out and setting: to chain 1 P14Q belongs 0.000256 average fractional NGS count over selection days 2 and 3 (reads of this peptide / all reads for the bait, averaged over …. Still for that read-out and setting: to chain 1 P14W belongs 0.000356 average fractional NGS count over selection days 2 and 3 (reads of this peptide / all reads for the bait, averaged over …; to chain 1 P14M, 0.000928 average fractional NGS count over selection days 2 and 3 (reads of this peptide / all reads for the bait, averaged over ….

Regarding chain 1 P14R, the screen value is 0.00035 average fractional NGS count over selection days 2 and 3 (reads of this peptide / all reads for the bait, averaged over …. For chain 1 P14V, the screen value is 0.000836 average fractional NGS count over selection days 2 and 3 (reads of this peptide / all reads for the bait, averaged over …. On the same count and under the same terms, the same measure for chain 1 S6T: 0.0012 average fractional NGS count over selection days 2 and 3 (reads of this peptide / all reads for the bait, averaged over …. The same measure, in the same setting: to chain 1 S6W belongs 0.000475 average fractional NGS count over selection days 2 and 3 (reads of this peptide / all reads for the bait, averaged over …; to chain 1 S6N, 0.000518 average fractional NGS count over selection days 2 and 3 (reads of this peptide / all reads for the bait, averaged over ….

As for chain 1 S3E, the screen value was 0.000689 average fractional NGS count over selection days 2 and 3 (reads of this peptide / all reads for the bait, averaged over …. The same measure, in the same setting: to chain 1 S3Q belongs 0.00262 average fractional NGS count over selection days 2 and 3 (reads of this peptide / all reads for the bait, averaged over …. On the same count and under the same terms, to chain 1 S3D belongs 0.000994 average fractional NGS count over selection days 2 and 3 (reads of this peptide / all reads for the bait, averaged over …; to chain 1 S3T, 0.00109 average fractional NGS count over selection days 2 and 3 (reads of this peptide / all reads for the bait, averaged over …; to chain 1 S3M, 0.000284 average fractional NGS count over selection days 2 and 3 (reads of this peptide / all reads for the bait, averaged over …. On the same count and under the same terms, the same measure for chain 1 S3A: 0.00075 average fractional NGS count over selection days 2 and 3 (reads of this peptide / all reads for the bait, averaged over …; for chain 1 S3N: 0.000537 average fractional NGS count over selection days 2 and 3 (reads of this peptide / all reads for the bait, averaged over …. As to chain 1 S3H, the screen value was 0.000523 average fractional NGS count over selection days 2 and 3 (reads of this peptide / all reads for the bait, averaged over …. The same measure, in the same setting: the same measure for chain 1 S3K: 0.000637 average fractional NGS count over selection days 2 and 3 (reads of this peptide / all reads for the bait, averaged over …; for chain 1 S3L: 0.000356 average fractional NGS count over selection days 2 and 3 (reads of this peptide / all reads for the bait, averaged over …; for chain 1 S3V: 0.00074 average fractional NGS count over selection days 2 and 3 (reads of this peptide / all reads for the bait, averaged over ….

In another experiment the parent is B2. Described as above.
Turning to chain 1 E7A, the screen value was 0.00276 average fractional NGS count over selection days 2 and 3 (reads of this peptide / all reads for the bait, averaged over …. On the same count and under the same terms, the same measure for chain 1 E7Y: 0.00419 average fractional NGS count over selection days 2 and 3 (reads of this peptide / all reads for the bait, averaged over …. On the same count and under the same terms, to chain 1 E7G belongs 0.00104 average fractional NGS count over selection days 2 and 3 (reads of this peptide / all reads for the bait, averaged over …; to chain 1 Q11S, 0.000902 average fractional NGS count over selection days 2 and 3 (reads of this peptide / all reads for the bait, averaged over …; to chain 1 Q10I, 0.00252 average fractional NGS count over selection days 2 and 3 (reads of this peptide / all reads for the bait, averaged over …. Still for that read-out and setting: the same measure for chain 1 Q10Y: 0.00306 average fractional NGS count over selection days 2 and 3 (reads of this peptide / all reads for the bait, averaged over ….

Take chain 1 Q10W: the screen value is 0.0034 average fractional NGS count over selection days 2 and 3 (reads of this peptide / all reads for the bait, averaged over ….

For chain 1 Q10D, the screen value was 0.000871 average fractional NGS count over selection days 2 and 3 (reads of this peptide / all reads for the bait, averaged over …. Same read-out and setting: the same measure for chain 1 A6V: 0.00173 average fractional NGS count over selection days 2 and 3 (reads of this peptide / all reads for the bait, averaged over …; for chain 1 A1R: 0.000918 average fractional NGS count over selection days 2 and 3 (reads of this peptide / all reads for the bait, averaged over …. Same read-out and setting: the same measure for chain 1 A5W: 0.000742 average fractional NGS count over selection days 2 and 3 (reads of this peptide / all reads for the bait, averaged over …; for chain 1 G13P: 0.00036 average fractional NGS count over selection days 2 and 3 (reads of this peptide / all reads for the bait, averaged over …; for chain 1 I9W: 0.00339 average fractional NGS count over selection days 2 and 3 (reads of this peptide / all reads for the bait, averaged over ….

As for chain 1 I9F, the screen value is 0.00108 average fractional NGS count over selection days 2 and 3 (reads of this peptide / all reads for the bait, averaged over …. The same measure, in the same setting: to chain 1 Q12M belongs 0.000477 average fractional NGS count over selection days 2 and 3 (reads of this peptide / all reads for the bait, averaged over …; to chain 1 Q12P, 0.00104 average fractional NGS count over selection days 2 and 3 (reads of this peptide / all reads for the bait, averaged over …; to chain 1 E2H, 0.00822 average fractional NGS count over selection days 2 and 3 (reads of this peptide / all reads for the bait, averaged over …. The same measure, in the same setting: to chain 1 T14A belongs 0.00163 average fractional NGS count over selection days 2 and 3 (reads of this peptide / all reads for the bait, averaged over …; to chain 1 S15Y, 0.000382 average fractional NGS count over selection days 2 and 3 (reads of this peptide / all reads for the bait, averaged over …; to chain 1 S15V, 0.000997 average fractional NGS count over selection days 2 and 3 (reads of this peptide / all reads for the bait, averaged over …. With chain 1 Q3D, the screen value is 0.000539 average fractional NGS count over selection days 2 and 3 (reads of this peptide / all reads for the bait, averaged over …. The same measure, in the same setting: to chain 1 Q3G belongs 0.000648 average fractional NGS count over selection days 2 and 3 (reads of this peptide / all reads for the bait, averaged over …; to chain 1 Q3L, 0.00235 average fractional NGS count over selection days 2 and 3 (reads of this peptide / all reads for the bait, averaged over ….
